These results are taken from the DeepSol protein solubility set.

The data set in a line: soluble on expression in E. coli; label from the status in PepcDB or PDB records.
As for “MGSDKIHHHHHHMIGALYVVGPAGTGKSTFSGSLNEWLKRMEFDSAIINLDPGADYLPYEPDFDIREYISLDSIMSDYNLGPNGSQIVAADMIVSYTDKITEFLEDLDDYYVVVDTPGQIELFTFRTSSTEIVEKVSGQRSMMAYIADAPLATYPSGFIAQKMLYASVFSRFFRPMMFVLNKIDLVSDEDIQEVKKWESSPDLLNDAFMEEKGQMEKDYFVGILQAFKESNIMTKIYPVSSRDSFGFEDIYSQMALYFTGGEDNDTYREEG”, the “soluble on expression in E. coli” value was “not soluble”.

Regarding “MGSDKIHHHHHHMMKSLPHMIGNEIKRIRKEKKMTQKELCDGICSQAEISKIENGRNSPTIDLLQQISKRLRVPLSLLFRDQLESDAFREADNHLSSLFREQKYQEMRLELLRTDAIHHNEIRLLKAYFTILLEVKTEKIDYRTASALLSRLTDQEDIWYESPKMFIRIKMAISNLHVENEQYHLAEKVYEELEELTYDTEELKKQLIKVYYNHSQLLTYEKKYKAGLKITEKGLSYSLSLNDASFIAHFYYQRGYYHEVMLGDDSSPAQRDYTISYALFRAFHLHTYEEIVLKGKERFLLFTF”, the “soluble on expression in E. coli” value is given as “not soluble”.

“SDRSAEFRKWKAQCLSKADLSRKGSVDEDVVELVQFLNMRDQFFTTSSCAGRILLLDRGINGFEVQKQNCCWLLVTHKLCVKDDVIVALKKANGDATLKFEPFVLHVQCRQLQDAQILHSMAIDSGFRNSGITVGKRGKTMLVVRSTHGLEVPLSHKGKLMVTEEYIDFLLNVANQKMEENKKRIERFYNCLQHALERETMTNLHPKIKEKNNSSYIHKKKRNPEKTRAQCITKESDEELENDDDDDLGINVTIFPEDY”: the “soluble on expression in E. coli” value is “soluble”.

For “MAGDPMLLTGTLKREAGNKMGQKPKIAIFGGGTGLSVLLRGLKHKPVDITAIVTVADDGGSSGRLRNELKIPPPGDIRNVLAALSDVEPLVEDLFQHRFNKGNDLTGHSLGNLILAAMTNITGDFFHAVTEMSKVLNVRGKVLPAANASVVLHAEMEDGRVVSGESTIPEYGQRIKRVFLTPEQIDPLPETIDVIREADLIIIGPGSLYTSILPNLLVPKIGEEVIKAPAKKVYICNVMTQPGETLHYTAADHVKALNQHMGCGFIDTILVNSEDIPDEIKRKYEMESARPVDFDIEELKAMGLEVIRDQIVTYKNDVIRHDTHKVASLLVDLLKELEHHHHHH”, the “soluble on expression in E. coli” value is on record as “soluble”.

As to “MPDTSFSNPGLFTPLQLGSLSLPNRVIMAPLTRSRTPDSVPGRLQQIYYGQRASAGLIISEATNISPTARGYVYTPGIWTDAQEAGWKGVVEAVHAKGGRIALQLWHVGRVSHELVQPDGQQPVAPSALKAEGAECFVEFEDGTAGLHPTSTPRALETDEIPGIVEDYRQAAQRAKRAGFDMVEVHAANACLPNQFLATGTNRRTDQYGGSIENRARFPLEVVDAVAEVFGPERVGIRLTPFLELFGLTDDEPEAMAFYLAGELDRRGLAYLHFNEPDWIGGDITYPEGFREQMRQRFKGGLIYCGNYDAGRAQARLDDNTADAVAFGRPFIANPDLPERFRLGAALNEPDPSTFYGGAEVGYTDYPFLDNGHDRLG”, the “soluble on expression in E. coli” value is on record as “soluble”.

“MDAFSGIAGPLGRASELHRYEGNQTVVFCAGGVGLPPVYPIMREHLRLGNHVTLISGFRAKEFLFWTGDDERVGKLKKEFGDQLSLIYTTNDGSYGVKGFVTGPLEEMMKANQEGKGRSIAEVIAIGPPLMMRAVSDLTKPYGVKTVASLNSLEHHHHHH”: the “soluble on expression in E. coli” value is “soluble”.

With “MEIRKKLVDPSKYCIKCPYTMNPEFITVHNTYNDATAENEVAYMIRNDNQVSFHIAVDDKEAVQGIPLERNAWHTGDGNGNGNRKSIGVEICYSLSGGDRYYKAEDNAAIVVAQLMKQYNIPIKKVRTHQSWSGKYCPHRMLAEGRWNNFIERVQNAYNGDGKVTPTLIPPSTNGTGIAYIEGNGINLRKGLGTGYGVIRQLGKGESYEVWGQSNGWLNLGGNQWIYNDSSYIRYTGESTPTSSQSVNNGVGIVTITADVLRVRKGPGTNYDIVKNVYQGEQYQSWGYRDGWYNVGGDQWVSGEYVKFED”, the “soluble on expression in E. coli” value was “not soluble”.

For “MKEQKISPISVLDQSPMFVSGVMQRMYRNRAQAELCRQNQMTLEMASALAALEEFQPMSQQALADAVLTERSVAKRMVDNLEKRGFVCVSKSEANQRLKMLSLTKEGEATIKKVHQIMRNLQREFFSCLSEDESAEFFRLVRKMTLANNS”, the “soluble on expression in E. coli” value is listed as “not soluble”.

In the case of “HHHHHHMTTINPTNYTLLKKQAASLIEDEHHMIAILSNMSALLNDNLDQINWVGFYLLEQNELILGPFQGHPACVHIPIGKGVCGTAVSERRTQVVADVHQFKGHIACDANSKSEIVVPIFKDDKIIGVLDIDAPITDRFDDNDKEHLEAIVKIIEKQLA”, the “soluble on expression in E. coli” value was “soluble”.

As to “MSLDLRKINLNLLLHLDTLLNELSVSKAAEKSFMSQTAMSHILKQLRDIFDDPLFIRKPHGLQPTQKVLDLAPKIKKFLNYSNDIFEEDTFNPGNDNLFLKTASVGTGEYFILPRLCAHLAKNAPKFVLKISSLSEYLSLEYLLMSELDFAIGPGFVETGNNIIRELLFEEEAVCIMHKSHPLANQELTQDMYLQAEHVDIQFSYMGNENILYKALQGYHQRNIKVIVPNIISALEVVYHTNFITTVPRTLAVTFKDRYQIELHPFPFPKKTFLVNFYYHKRLSNHKPLQWVLDVIKKYCCVNHEGHHHHHH”, the “soluble on expression in E. coli” value is on record as “soluble”.

Regarding “MGSDKIHHHHHHMSNLPLISVVIPTYGREEILRDSIVDVLNQDYPKYEVLVVDQSPKHKPEIETYLEEVAAAGKVKWFRLDWASLPGARNYAIRRASGEIILFIDDDVKLKPGFLAAHAKNYVQNPDVGSVAGRVFDRMKLGDSGGNLEIEYLPPEAMDPGVAWYHIDLVHTIKPQQVLTARGCNMSFRREIFTKHGLRFDERFRGSAVREESDFCLRLRQTGYKIWYDPEADLIHLGEETGGCHDISMRSLKYQFTFYHNHFLLGLKNLNFSQALRLYARLFDCHVLGRPPCHKSGSPIKIITRGIFYILGFFRALGSVIQSNWHDGQIYSRLDQESIIKSQESMVNS”, the “soluble on expression in E. coli” value is “not soluble”.

For “MGARCDVAVIGAGPAGCAAAIALKRLGVASVLLLEAGDGARPRFGESLPPDIRLILAQLGLAEAFAALGFDPCVGAASSWGEDGLGYNDFLFNPHGLGWHIDRARFDAFLRDAAVAAGAELRFDTVFDSVVMTGDAARLRVRGERGDETITAGFVLDATGRAARVARALGAERIESDRLVCAAALIRIDPDGLLGQRSLLEAVDYGWWYAARLSPDEAIVVVSTDADLLRARRLHRSDAWYGHLAATRHVAAALGTAAPPSQLMVRQARSSRLSRAADQRWRAIGDAASVYDPIMAQGVTKAMIEGLAAARDIVRHMPDAEEGLDARFADYLSLRDYFYGQEGRWPDAPFWTRRRRPQPAVRTLWEVSALEHHHHHH”, the “soluble on expression in E. coli” value was “not soluble”.

As to “MSLQNTLGHRLVVGERQLLRFPAQQRSAAGDRLHAPSVYRRACIASLRSRQACYRHARRRCRQQEGAAMTGINRRELLRGMLASGVRAALPAGAAGALLPGSADAAPAAAKDATPLAPLGDASLAPRERLLFDFGWRFHPGHASDPSRDFEFGTFQRTFAKAGKDTATAAQLAFDDSNWQQVDLPHDWAVTLPFRPEPISASMTEEDPAAAHGYKALGTSFPENSVGWYRRMLQIPASDLGKRICLVFDGVFRDCVVFCNGHIVGRNASGYCGFEVDLSEVLDYGKPNLIVVRVDATLGEGWFYEGAGIYRHLWLQKTDPLHVPQHGVFVRSSVQGDTATAQLSTEVRNDGTASRQCVVQARITAPYGRIVAQAASAAVTVAPGQVQVVEQTVPLGQAALWSIDTPQLYTLTTSVHSAGVAVDALVTPFGVRSIAFDAQRGFLLNGAPLKLHGTNNHQDHAGVGTAIPDALHAWRLRQLKSMGCNAYRSSHNPATPELLALCDRLGMFVIEETRRMSTDPEAMAELETMVRRGRNHPSVILWSLGNEEPQQVTERGARIVTRMQQRVRQLDPTRPTTFAMDKGFGDGVGQVVDVVGFNYRTSQMDGFHAQYPNIPIYGSETGSTVSVRGNYQRDDTRGYTRAYDTDHPWWASTAEAWWSYVAQRPYIAGGFIWTGFDYRGEPTPYNRWPNVGSQFGVLDSCGFPKDNYWYYRAQWTSEPVLHLFPHWNWDGLLQPDDKGRVEVWCHSNLEAVELLVNGVSQGLQQVPAYGHVEWRVAYAPGVIEARGYRGGKLVLTERRETVGKPAAIRLSCDRSALRADAEDVAVVKVEIVDAQGRLVPNADHLVHLVLRGPARLIGVGNGDPSSHEDDKAPQRKAFNGLCMALLRSTRSSGQILLQATAPGLTSAALHLQAATSAEGHHHHHH”, the “soluble on expression in E. coli” value is recorded as “soluble”.

Consider “ASQPLIQDPVLIEYINHLGNSLVKNAQGVNYAFEFFLINNNELNAFAFFGGHVGIHSGLITTADTESELASVIAHEISHVTQRHLARRLESQSQTQGLTMAAMLSSVLITLVNPTVGIAALSASMAVTQQASINYTRGNEKEADRVGIALLASSNYDPQGAASFFSKMSTKYRYASKPPAMLLTHPLPESRIADARQRALNYPARPLPPSLGFELTKARLKSRYQGEAKSNISFFKLQLEKKRYAIKAAAQYGLALSYFENKQTSEALQLLEMLEKNDKDNLFYVDALTDVYIANNQANKAIKMLERLNLFMPNNQVVSLNYANALLSVKEYDLAAQILQDFLLVNPGNFIAYDILTTLYRTQEKTGLMHMSKAEVYALLGAYPKAVDELQTSYAFLDEQPLMQK”, for which the “soluble on expression in E. coli” value is “not soluble”.

With “SGRKRFITDSYPVVKKREGPPGHNKGELAPELGEDTQSLSQEETELELLRQFDLAWQYGPCTGITRLQRWHRAEQMGLKPPVEVYQVLKTHPEDSRFQCSLWHLYPL”, the “soluble on expression in E. coli” value was “soluble”.

On to “MRSQRELTSPMTPLENPGDISDKPRLTTQKLSLGYGQQLIINKLSLSIKNGAFSVIIGPNGCGKSTLLRALSRSLLPQNGSIRLDQQDIQHYKAKVFARQLSLLSQGASISETLTVFDLVSRGRYAHQSFFHQWSTEDERIVKAAISAVNLESLVQQRVSELSGGQRQRAWFAMTLAQHTPIVLLDEPTTYLDIAHQIEMLDLCQELQQQGKTLVLVLHDINQALRYATHLIMLKEGQIYAEGLPESIVTEDSIAAVFGLRCRIITDPESGKPLVIPRRQSR”, for which the “soluble on expression in E. coli” value is listed as “not soluble”.

Turning to “MSLTPLTGQDTPALDECVVDAVDVHAFEVPTDGPEGREQDGTLEWDATTLVLVRVHAGGRTGLGYTYGDVSVASFAHSVLGPVVKGRPVSSPPALWELMGARMRNAGRPGVGAMALSAVDVALWDLKARLLGLPLVHLLPAHHDRVPVYGSGGFTNYPLDRLTDQLAGWVRQGIGRVKLKTSRDPEADPRRLTAVRRAVGDGPEVFTDANGALGRKAALYWAHRFHDEWDVRWFEEPVASADLEGLRMLRERGPARLEITAGEYAFTAQDFANLTEGPAVDCLQADVTRCGGVTGVLEVAGLSAARHLDLSAHCAPAVSAHAFCAVRRLRHLEYFHDHVRVERLLFDGVPSPEGGALRPDTSRPGLGLEVRWADAEPYRVRGVRPPREGHHHHHH”, the “soluble on expression in E. coli” value is listed as “soluble”.

With “GSHMENYHAGPGISKSQLDDIADTPALYLWRKNAPVDTTKTKTLDLGTAFHCRVLELEEFSNRFIVAPEFNRRTNAGKEEEKAFLMECASTGKTVITAEEGRKIELMYQSVMALPLGQWLVESAGHAESSIYWEDPETGILCRCRPDKIIPEFHWIMDVKTTADIQRFKTAYYDYRYHVQDAFYSDGYEAQFGVQPTFVFLVASTTIECGRYPVEIFMMGEEAKLAGQQEYHRNLRTLSDCLNTDEWPAIKTLSLPRWAKEYAND”, the “soluble on expression in E. coli” value is recorded as “soluble”.
